In data set [1] the target is Wildcat Gp80 (mycobacteriophage Wildcat). The experiment in a line: dynamic light scattering; higher protein concentrations (1 uM unless otherwise stated), 50 mM Tris-HCl pH 8.0, 50 mM KCl, 2 mM DTT, 1 mM MgCl2, 25°C; weight average hydrodynamic radius; no cofactor; oligomer also kept with 4 mM AMP-PNP and with 4 mM ATP plus 24 uM 41 mer ssDNA.
The target is the same in data set [2]. Description: SEC; analytical Superose 6 10/300 GL, FPLC, 0.4 ml/min, 40 mM Tris-HCl pH 7.5, 50 mM KCl, 2 mM DTT; Mw from a standard curve (thyroglobulin, beta-amylase, BSA, ovalbumin, cytochrome C). For orientation: In gel filtration, larger molecules generally elute earlier.
Data set [3] concerns the target T1, WCGp80 (Wildcat Gp80, DnaB-type helicase) (Mycobacteriophage Wildcat, UniProt Q19XY0 1-441).
T1 sequence: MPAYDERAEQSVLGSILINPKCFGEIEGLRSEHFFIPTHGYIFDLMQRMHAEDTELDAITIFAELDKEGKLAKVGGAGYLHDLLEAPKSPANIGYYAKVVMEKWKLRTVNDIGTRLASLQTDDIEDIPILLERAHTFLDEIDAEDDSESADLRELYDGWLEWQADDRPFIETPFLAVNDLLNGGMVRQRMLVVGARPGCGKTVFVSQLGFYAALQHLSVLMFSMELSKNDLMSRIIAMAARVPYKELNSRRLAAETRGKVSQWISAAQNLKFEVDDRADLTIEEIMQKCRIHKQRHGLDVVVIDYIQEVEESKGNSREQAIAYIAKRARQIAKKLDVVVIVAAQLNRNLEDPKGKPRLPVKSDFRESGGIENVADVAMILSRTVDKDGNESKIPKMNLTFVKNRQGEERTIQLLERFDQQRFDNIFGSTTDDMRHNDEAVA
The experiment in a line: fluorescence polarization; one-site non-cooperative fit; Binding buffer, pH and temperature not given in the material; Trp quenching ex 280/em 340 nm (helicase assay buffer E: 50 mM Tris-HCl pH 8.0, 50 mM KCl, 2 mM DTT, 0.25 mg/ml BSA, 4 mM MgCl2, 4 mM ATP, 4% sucrose, 37 C). To be noted: protein: recombinant; tags: N-terminal His6 (pQE30); chain copies: 6; label: 5' 6-FAM on oligo 2; fork 20 bp stem; 40 nt 5' tail on oligo1 and 40 nt 3' tail on oligo2.

In data set [4] the target is T1, WCGp80 (Wildcat Gp80, DnaB-type …). Description: tryptophan fluorescence quenching; 40 nM protein; S6 Fig legend gives 152 nM; Binding buffer, pH and temperature not given in the material; Trp quenching ex 280/em 340 nm (helicase assay buffer E: 50 mM Tris-HCl pH 8.0, 50 mM KCl, 2 mM DTT, 0.25 mg/ml BSA, 4 mM MgCl2, 4 mM ATP, 4% sucrose, 37 C). The following applies: protein: recombinant; tags: N-terminal His6 (pQE30); chain copies: 6; single strand.

The target is the same in data set [5]. The experiment in a line: tryptophan fluorescence quenching; 40 nM protein; S6 Fig legend gives 56.44 nM; Binding buffer, pH and temperature not given in the material; Trp quenching ex 280/em 340 nm (helicase assay buffer E: 50 mM Tris-HCl pH 8.0, 50 mM KCl, 2 mM DTT, 0.25 mg/ml BSA, 4 mM MgCl2, 4 mM ATP, 4% sucrose, 37 C). To be noted: protein: recombinant; tags: N-terminal His6 (pQE30); chain copies: 6; single strand.

A word on the stoichiometry N: it is a count of units in the complex or per binding partner. Consider Wildcat Gp80 (enzyme), for which the stoichiometry N in data set [1] and in data set [2] was 6 in each case.

B1: fork substrate (oligo1/oligo2) (mixed)
DNA 1: GCCCTGATCACGGTACTCGGTTTTTTTTTTTTTTTTTTTTGGCTCCTCTAGACTCGACCG
DNA 2: CGGTCGAGTCTAGAGGAGCCTTTTTTTTTTTTTTTTTTTTTTTTTTTTTTTTTTTTTTTT
Usually Kd stands for a measure of binding affinity in units of concentration. On to B1, for which, in data set [3], the Kd was 9.5 nM.

B2: 60-mer (oligo2) (ssDNA)
DNA: CGGTCGAGTCTAGAGGAGCCTTTTTTTTTTTTTTTTTTTTTTTTTTTTTTTTTTTTTTTT
In the case of B2, in data set [4], the Kd was 164 nM.
Turning to TCGAGCTCGGTACCCGGGGATCCTCTAGAGTCGACCTGCAGG (ssDNA) [41-mer], the equilibrium dissociation constant (Kd) in data set [5] turned out to be 58 nM.
